Earlier results as cited in publication PMC10065799, “High-throughput profiling of sequence recognition by tyrosine kinases and SH2 domains using bacterial peptide display” (eLife, 2023).

Target: PD1 phosphosite peptide (Homo sapiens) (UniProt Q15116)

## SHP2 N-SH2 (from UniProt Q06124)
  Kd: 2000 nM
